In the Immune Epitope Database (IEDB):

Tests used:
HLA-A*02:01 [1] = test: IEDB peptide-MHC binding, purified MHC/competitive/radioactivity; ≥ and ≤ were set here for values at or beyond the usual limits of such assays; conditions: source organism: Homo sapiens
HLA-A*02:01 [2] = test: IEDB peptide-MHC binding, purified MHC/competitive/radioactivity; filed as Kd, often an IC50 or EC50 that approximates it; ≥ and ≤ were set here for values at or beyond the usual limits of such assays; conditions: source organism: Homo sapiens

Row | IC50 (HLA-A*02:01 [1]) | Kd (HLA-A*02:01 [2]) | Sequence
1 | 532 nM |  | GLVSLVENA
2 |  | 2.17 µM | YLVLINCNS
3 | 676 nM |  | LLCLVVFFL
4 |  | 1.64 µM | MLARACQHA
5 |  | 2.08 µM | FLAMLVLMA
6 |  | 4.54 µM | TILLGVFIF
7 |  | 4.54 µM | TILIGVFVV
8 | 455 nM |  | TILLGIFFL
9 |  | 1.19 µM | SVIDPLIYA
10 |  | 4.76 µM | ILLLEAGAL
11 | 238 nM |  | VLETAVGLL
12 | 429 nM |  | SLVENALVV
13 |  | 1.21 µM | LVLMAVLYV
14 |  | ≥ 50 µM | ELRRTLKEV
15 |  | ≥ 50 µM | GLKGAVTLT
16 | 893 nM |  | ALIICNAII
17 |  | 5.56 µM | ILLGIFFLC
18 |  | ≥ 25 µM | TLPRARRRV
19 |  | ≥ 50 µM | QLGLAANQT
20 | 758 nM |  | AVMDPFIYA
21 | 633 nM |  | SLNSTPTAI
22 |  | 2.38 µM | GLAANQTGA
23 |  | ≥ 50 µM | DLLVSGSNV
24 | 535 nM |  | GLFLSLGLV
25 |  | ≥ 10 µM | SLCFLGAIA
26 | 206 nM |  | FLSLGLVSL
27 |  | 16.7 µM | NGMLIMCNA
28 |  | 6.25 µM | YLILIMCNS
29 |  | 1.41 µM | LLVSGSNVL
30 |  | 11.1 µM | ALVARAAVL
